Series [1] addresses yeast histone H3-H4 tetramer (Saccharomyces cerevisiae, UniProt P61830 1-136; P02309 1-103). Kind of series: ITC; ITC200 at 20 °C; 0.5 mM ARB2 or mutant in the injector, 0.2 mM H2A/B or 0.25 mM H3/4 in the sample cell; 25 mM Tris-HCl pH 7.5, 200 mM NaCl; single-site fitting model. Conditions: both partners purified.
Series [2] deals with the molecule itself. In words: SEC; Superdex 200 10/300 GL, 0.5 ml/min, 25 mM Tris-HCl pH 7.5, 200 mM NaCl; apparent molecular mass against standard proteins. (In general: SEC sorts molecules by how far they enter the pores of the column.)

The values below come from publication PMC5036196, “Structural and histone binding ability characterization of the ARB2 domain of a histone deacetylase Hda1 from Saccharomyces cerevisiae” (Scientific Reports, 2016).

B1: ARB2 domain of Hda1 (Hda1^457–698) (domain or fragment, Saccharomyces cerevisiae, UniProt P53973 457-698, looked up)
chain: LQKAIRQQQQHYLSDEFNFVTLPLVSMDLPDNTVLCTPNISESNTIIIVVHDTSDIWAKRNVISGTIDLSSSVIIDNSLDFIKWGLDRKYGIIDVNIPLTLFEPDNYSGMITSQEVLIYLWDNYIKYFPSVAKIAFIGIGDSYSGIVHLLGHRDTRAVTKTVINFLGDKQLKPLVPLVDETLSEWYFKNSLIFSNNSHQCWKENESRKPRKKFGRVLRCDTDGLNNIIEERFEEATDFILDS
notes: Hda1 (histone deacetylase), S. cerevisiae, C-terminal ARB2 domain, residues 457-698; Homodimer in the crystal (symmetry-related molecules) and by size-exclusion chromatography; A selenomethionine derivative was used for phasing only; also called Native-Hda1^457–698; wild-type ARB2 domain; source: E. coli BL21 (DE3), purified (Ni-NTA, HiTrap Q FF, Superdex 200)
For B1, in series [1], the affinity, expressed as Kd, was 3.24 ± 0.49 µM; the dH was -33.9 kcal/mol; the “stoichiometry N” value was 1.52. For the same molecule, the “stoichiometry N” value in series [2] came out at 2.

B2: ARB2-M2 (residues Tyr468 and Glu472 mutated to Ala) (domain or fragment, Saccharomyces cerevisiae, UniProt P53973 457-698, looked up)
chain: LQKAIRQQQQHALSDAFNFVTLPLVSMDLPDNTVLCTPNISESNTIIIVVHDTSDIWAKRNVISGTIDLSSSVIIDNSLDFIKWGLDRKYGIIDVNIPLTLFEPDNYSGMITSQEVLIYLWDNYIKYFPSVAKIAFIGIGDSYSGIVHLLGHRDTRAVTKTVINFLGDKQLKPLVPLVDETLSEWYFKNSLIFSNNSHQCWKENESRKPRKKFGRVLRCDTDGLNNIIEERFEEATDFILDS
notes: Hda1, S. cerevisiae, ARB2 domain, residues 457-698, with two substitutions around the groove; source: E. coli BL21 (DE3), purified (Ni-NTA, HiTrap Q FF, Superdex 200)
In the case of B2, in series [1], the Kd came to 6.93 ± 1.24 µM, the dH is -24.1 kcal/mol and the “stoichiometry N” value is 1.1.

B3: ARB2-M3 (residues Val481, Ser482, Met483 and Asp484 mutated to Ala) (domain or fragment, Saccharomyces cerevisiae, UniProt P53973 457-698, looked up)
chain: LQKAIRQQQQHYLSDEFNFVTLPLAAAALPDNTVLCTPNISESNTIIIVVHDTSDIWAKRNVISGTIDLSSSVIIDNSLDFIKWGLDRKYGIIDVNIPLTLFEPDNYSGMITSQEVLIYLWDNYIKYFPSVAKIAFIGIGDSYSGIVHLLGHRDTRAVTKTVINFLGDKQLKPLVPLVDETLSEWYFKNSLIFSNNSHQCWKENESRKPRKKFGRVLRCDTDGLNNIIEERFEEATDFILDS
notes: Hda1, S. cerevisiae, ARB2 domain, residues 457-698, with four substitutions around the groove; source: E. coli BL21 (DE3), purified (Ni-NTA, HiTrap Q FF, Superdex 200)
B3: in series [1], the Kd is 8.19 ± 0.72 µM, the dH was -20.2 kcal/mol and the “stoichiometry N” value was 0.9.

B4: ARB2-M1 (residues Gln463, His467 and Asp471 mutated to Ala) (domain or fragment, Saccharomyces cerevisiae, UniProt P53973 457-698, looked up)
chain: LQKAIRAQQQAYLSAEFNFVTLPLVSMDLPDNTVLCTPNISESNTIIIVVHDTSDIWAKRNVISGTIDLSSSVIIDNSLDFIKWGLDRKYGIIDVNIPLTLFEPDNYSGMITSQEVLIYLWDNYIKYFPSVAKIAFIGIGDSYSGIVHLLGHRDTRAVTKTVINFLGDKQLKPLVPLVDETLSEWYFKNSLIFSNNSHQCWKENESRKPRKKFGRVLRCDTDGLNNIIEERFEEATDFILDS
notes: Hda1, S. cerevisiae, ARB2 domain, residues 457-698, with three substitutions around the groove; source: E. coli BL21 (DE3), purified (Ni-NTA, HiTrap Q FF, Superdex 200)
On to B4, for which, in series [1], binding was put at a Kd of 9.84 ± 1.48 µM, the dH is -7.63 kcal/mol and the “stoichiometry N” value was 0.78.

For orientation: Kd means a measure of binding affinity in units of concentration. Higher therefore signals weaker binding. What is called stoichiometry N is the number of molecules, sites or subunits per partner or assembly.
